Patent US8013137B2, “Modified enteropeptidase protein” (National University Corporation Hokkaido University, priority 2006, dated 2011)
Positions count from the first letter of the chain named. Names and notes keep the numbering of the source.

Columns and labels:
GD4K-βNA = assay: EP activity and kinetic study with specific substrate GD4K-βNA; assay type: biochemical; settings: for Km / kcat: substrate GD4K-βna
Procedure: (§1) (A) Active recombinant EP proteases were assayed using a GD4K-βNA (SEQ ID NO: 6) substrate as a substrate. Bovine (Nvg), bovine EP protease available from Novagen; Bovine (Neb), bovine EP protease available from NEB. (B) Active recombinant EP proteases were assayed using various synthetic peptide substrates. (C) Active EP proteases were analyzed by gelatin zymography. (D) Fibronectin (4 μg) was incubated with active EPs (100 ng) at 37° C. for 12 h. (E) Laminin ((10 μg) was incubated with active recombinant EPs (100 ng) at 37° C. for 12 h. (F) Two μg of the control protein containing the D4K site (SEQ ID NO: 1) was incubated with active recombinant EPs (100 ng) at 37° C. for 1 h.
(A) The purity of purified recombinant Medaka EP-1 and EP-2 protease was assessed by SDS-PAGE. Lane 1, Medaka EP fusion protein; lane 2, Medaka EP protease treated with immobilized trypsin; lane 3, Medaka EP protease purified using a resource Q column. (B) The enzyme activities of EP proteases were determined at various pHs using GD4K-βNA (SEQ ID NO: 6) as a substrate. (C) Recombinant Medaka trypsinogen was incubated at 37° C. with EPs for 15, 30 and 45 min. After incubation, samples were analyzed by SDS-PAGE and visualized by CBB staining (upper panel). The relative amount of the active form of Medaka trypsin at each time point were calculated based on the results shown in the upper panel (lower panel). The results are presented as the means (±SD) of three separate experiments.
(§2) EP activity was routinely determined using the specific substrate Gly-Asp-Asp-Asp-Asp-Lys-β-naphthylamide (GD4K-βNA) (SEQ ID NO: 6) (Sigma) according to the method of Mikhailova and Rumsh (Mikhailova et al., FEBS Lett., 442:226-230 (1999)). Enzyme activity for various 4-methylcoumaryl-7-amide (MCA)-containing peptide substrates was determined by the method of Barrett (Barrett et al., J., Biochem. J., 187:909-912 (1980)). For kinetic studies, initial velocities, extrapolated from the plot of product versus time, were transformed into double-reciprocal plots (Lineweaver et al., J. Am. Chem. Soc., 56:658-663 (1934)). The maximum velocities (Vmax) and Km and kcat values were obtained from the intercepts of these plots. For all experiments, the results of at least three separate determinations are shown.

[1] = tested on: recombinant Medaka trypsinogen; assay: Activation of recombinant Medaka trypsinogen, SDS-PAGE; assay type: biochemical; settings: 37° C., 15, 30 and 45 min
[2] = Enzyme stability, residual activity using GD4K-βNA; assay type: physicochemical
Procedure: […] Aliquots of the reaction mixtures were taken at the indicated times for an activity assay using GD4K-βNA (SEQ ID NO: 6) as a substrate. The enzyme activities relative to that at 0-time are shown.
[…] The enzyme activity was measured at various time points (0 to 96 h) using GD4K-βNA (SEQ ID NO: 6) as a substrate.

gelatin = assay: Gelatin zymography; assay type: biochemical; settings: FIG. 2C
Procedure: as §1
(§3) The effect of Medaka EP serine protease on various fusion proteins containing a D4K-cleavage site (SEQ ID NO: 1) was examined. […]

[3] = tested on: D4K-cleavage site-containing control protein; assay: Cleavage of D4K-cleavage site-containing control protein (Novagen); assay type: biochemical; settings: 37° C., 1 h, 100 ng EP
Procedure: as §1, §3

[4] = tested on: Boc-Glu(OBzl)-Ala-Arg-MCA, Z-Phe-Arg-MCA, and Pro-Phe-Arg-MCA; assay: Amidolytic activity for synthetic MCA-containing peptide substrates (panel); assay type: biochemical; settings: FIG. 2B
mouse laminin = assay: Hydrolysis of laminin, SDS-PAGE; assay type: biochemical; settings: 37° C., 12 h, 100 ng EP
Procedure: as §1, §3

Human plasma fibronectin = assay: Hydrolysis of fibronectin, SDS-PAGE; assay type: biochemical; settings: 37° C., 12 h, 100 ng EP
Procedure: as §1, §3

Pro-Phe-Arg-MCA = assay: Activity assay of EP proteases and EP-treated hK8 samples with Pro-Phe-Arg-MCA (FIG. 4B middle); assay type: biochemical
Procedure: (§4) (A) A recombinant fusion protein of Medaka gelatinase A (5 μg) was separately incubated with active EP proteases (100 ng) at 37° C. for 1 h, and analyzed by SDS-PAGE. (B) A recombinant fusion protein of human kallikrein 8 (hK8) (5 μg) was incubated with active EP proteases (100 ng) at 37° C. for 2 h. After incubation, the samples were analyzed by SDS-PAGE (upper panel), or assayed for activity with Pro-Phe-Arg-MCA (middle panel), or Boc-Glu(OBzl)-Ala-Arg-MCA (lower panel). […] The samples were then analyzed by SDS-PAGE/Western blotting using anti-human tPA antibody (upper panel) or anti-His probe antibody (lower panel). The position of sctPA (58- and 61-kDa) detected with the antibodies is shown.
as §2
Next, a 35.5-kDa protein of human kallikrein 8 (hK8) in the same E. coli expression system was synthesized. Digestion with Medaka wild-type and mutant EP proteases generated 31.5-kDa active hK8 by cleaving the D4K sequence (SEQ ID NO: 1) (FIG. 4B, Top). […] The EP protease-treated samples were directly assayed for hK8 activity using Pro-Phe-Arg-MCA, a good synthetic peptide substrate of hK8 (Rajapakse et al., FEBS Lett., 579:6879-6884 (2005)). […] The substrate Boc-Glu(OBzl)-Ala-Arg-MCA, which is slightly cleaved by active hK8, was rapidly hydrolyzed with the samples treated with mammalian, but not Medaka, EP proteases (FIG. 4B, Bottom).

[5] = tested on: GD4K-βNA and the three MCA-containing substrates; assay: Specific activities of wild-type and mutant EP protease using synthetic peptide substrates (FIG. 3A); assay type: biochemical
Procedure: (§5) (A) The specific activities of wild-type (EP-1) and mutant EP protease were determined using synthetic peptide substrates. (B) High-molecular-weight (HMW) kininogen (5 μg) was incubated with active EP proteases (100 ng) at 37° C. for 2 h and analyzed by SDS-PAGE. (C) Fibrinogen (10 μg) was incubated with active EP proteases (100 ng) at 37° C. for 12 h and analyzed by SDS-PAGE.
as §2

[6] = tested on: human single-chain tPA fusion protein; assay: Cleavage of human single-chain tPA fusion protein, Western blotting; assay type: biochemical; settings: 37° C., 1 h, 100 ng EP
[7] = tested on: recombinant fusion protein of human kallikrein 8 (hK8); assay: Cleavage of recombinant fusion protein of human kallikrein 8 (hK8); assay type: biochemical; settings: 37° C., 2 h, 100 ng EP
Procedure: as §4, §3

[8] = tested on: recombinant fusion protein of Medaka gelatinase A; assay: Cleavage of recombinant fusion protein of Medaka gelatinase A; assay type: biochemical; settings: 37° C., 1 h, 100 ng EP
[9] = tested on: human high-molecular-weight (HMW) kininogen; assay: Hydrolysis of HMW kininogen, SDS-PAGE; assay type: biochemical; settings: 37° C., 2 h, 100 ng EP
Procedure: as §5
(§6) The effect of Medaka EP serine protease on various fusion proteins containing a D4K-cleavage site (SEQ ID NO: 1) was examined. Human plasma fibronectin (Chemicon, Temecula, Calif.), human fibrinogen (Merk Biosciences, Tokyo, Japan), human high-molecular-weight (HMW) kininogen (Calbiochem, La Jolla, Calif.), mouse laminin (Biomedical Technologies Inc., Stoughton, Mass.), D4K-cleavage site-containing (SEQ ID NO: 1) control protein (Novagen), Medaka gelatinase A (Ogiwara et al., Proc. Natl. Acad. Sci. USA, 102:8442-8447 (2005)) and trypsinogen (this study), human kallikrein 8 (hK8) (Rajapakse et al., FEBS Lett., 579:6879-6884 (2005)) and human tissue-type plasminogen activator (tPA) were incubated at 37° C. in 20 mM Tris.HCl buffer (pH 7.4) containing 50 mM NaCl and 2 mM CaCl2 with various EP serine proteases at ratios (w/w) ranging from 20:1 to 100:1. After incubation, samples were subjected to SDS-PAGE followed by Coomassie Brilliant Blue staining. […]

human fibrinogen = assay: Hydrolysis of fibrinogen, SDS-PAGE; assay type: biochemical; settings: 37° C., 12 h, 100 ng EP
Procedure: as §5, §6

medaka EP-1 protease = assay: Inhibitor assay, enzyme activity measured using GD4K-βNA as a substrate; assay type: biochemical, medaka (Oryzias latipes); settings: inhibitor 0.1 mg/ml; GD4K-βNA substrate; 10 min preincubation
medaka EP-2 protease = assay: as above; assay type: biochemical, medaka (Oryzias latipes); settings: inhibitor 0.1 mg/ml; GD4K-βNA substrate; 10 min preincubation

B1: EP-1: recombinant serine protease domain of Medaka (Oryzias latipes) enteropeptidase-1, wild type, SEQ ID NO: 2 (protein)
chain: VVGGVNAEKGAWPWMVSLHWRGRHGCGASLIGRDWLLTAAHCVYGKNTHLQYWSAVLGLHAQSSMNSQEVQIRQVDRIIINKNYNRRTKEADIAMMHLQQPVNFTEWVLPVCLASEDQHFPAGRRCFIAGWGRDAEGGSLPDILQEAEVPLVDQDECQRLLPEYTFTSSMLCAGYPEGGVDSCQGDSGGPLMCLEDARWTLIGVTSFGVGCGRPERPGAYARVSAFTSWIAETRRSSFSDLD
modifications: Oryzias latipes
For B1, the “rate of GD4K-βNA cleavage compared with porcine and bovine enzymes” value (GD4K-βNA; FIG. 2A) was “at a rate comparable to those of the porcine and bovine enzymes”, the “activity for GD4K-βNA relative to EP-2” value (GD4K-βNA; FIG. 8B) was “approximately three times more active than EP-2” and the “pH of maximal activity for GD4K-βNA” value (GD4K-βNA; serine protease domain, FIG. 8B) was 8. The Km (GD4K-βNA) was 700 µM, the kcat (GD4K-βNA) was 15.7 s⁻¹ and the “conversion of recombinant Medaka trypsinogen to active trypsin” value [1] was “converted to active trypsin by EP-1 faster than by EP-2”. For the same molecule, the “stability of enzyme activity on storage” value ([2]; 4° C.) was “the initial enzyme activity was retained at both temperatures for at least six months”, the “loss of enzyme activity” value ([2]; 37° C., neutral pH, after 4 days of incubation) was “about 30%” and the “stability of enzyme activity on storage” value ([2]; −20° C.) was “the initial enzyme activity was retained at both temperatures for at least six months”. For the same molecule, the hydrolysis of gelatin (gelatin) was “Little or no hydrolysis”, the “cleavage of fusion protein containing an EP-cleavage site (Novagen)” value [3] was “specifically cleaved the fusion protein to generate two polypeptides having expected molecular masses of 16- and 32-kDa” and the “amidolytic activities for synthetic MCA-containing peptide substrates compared with mammalian EP proteases” value [4] was “much lower than those of the EP proteases of mammalian origin”. The hydrolysis of laminin (mouse laminin) was “Little or no hydrolysis”, the hydrolysis of fibronectin (Human plasma fibronectin) was “Little or no hydrolysis” and the “enzyme activity of the EP protease itself with Pro-Phe-Arg-MCA” value (Pro-Phe-Arg-MCA) was “none of the Medaka EP proteases (wild-type EP-1, K63R, E173A, or E193A) showed any significant enzyme activity”.

B2: E173A: EP-1 with E173A mutation, SEQ ID NO: 4 (protein)
chain: B1 chain with E156A
modifications: Oryzias latipes
For B2, the “enzyme activity for synthetic peptide substrates compared with the wild-type enzyme” value [5] was “significantly lower activities than the wild-type enzyme toward all the synthetic substrates tested”, the Km (GD4K-βNA) was 300 µM and the kcat (GD4K-βNA) was 5.33 s⁻¹. For the same molecule, the “cleavage of human single-chain tPA fusion protein” value [6] was “no serious reduction of the D4K (SEQ ID NO: 1) cleaving activity”, the “cleavage of hK8 fusion protein” value [7] was “no serious reduction of the D4K (SEQ ID NO: 1) cleaving activity” and the “cleavage of Medaka gelatinase A fusion protein” value [8] was “no serious reduction of the D4K (SEQ ID NO: 1) cleaving activity”. The “nonspecific proteolytic activity for human HMW kininogen” value [9] was “retained a low nonspecific proteolytic activity”, the “enzyme activity of the EP protease itself with Pro-Phe-Arg-MCA” value (Pro-Phe-Arg-MCA) was “none of the Medaka EP proteases (wild-type EP-1, K63R, E173A, or E193A) showed any significant enzyme activity” and the “nonspecific proteolytic activity for human fibrinogen” value (human fibrinogen) was “retained a low nonspecific proteolytic activity”.

B3: SBTI (protein)
chain: DFVLDNEGNPLENGGTYYILSDITAFGGIRAAPTGNERCPLTVVQSRNELDKGIGTIISSPYRIRFIAEGHPLSLKFDSFAVIMLCVGIPTEWSVVEDLPEGPAVKIGENKDAMDGWFRLERVSDDEFNNYKLVFCPQQAEDDKCGDIGISIDHDDGTRRLVVSKNKPLVVQFQKLDKESL
With B3 the “Inhibition (%) EP-1” value (medaka EP-1 protease) was 99% and the “Inhibition (%) EP-2” value (medaka EP-2 protease) was 99%.
